Data from patent publication US20140087995A1 (published 2014).
Numbered stars: 1 amine (or outer) side, 2 acyl side, 3 side chain; on linkers, the order of the positions; unused ones are H or OH. Bridge positions count the residues as written; N and C are the ends. Side chains are listed from the residue outwards. Ends that are not written are not given here. * marks the point of attachment. C20 diacid = O=C(O)CCCCCCCCCCCCCCCCCCC(=O)*; C18 diacid = O=C(O)CCCCCCCCCCCCCCCCC(=O)*; C16 diacid = O=C(O)CCCCCCCCCCCCCCC(=O)*; γGlu = O=C(O)[C@H](CCC(=O)[*:2])N[*:1]; C14 diacid = O=C(O)CCCCCCCCCCCCC(=O)*; AEEA = NCCOCCOCC(=O)O

T1: rat calcitonin receptor (rat, UniProt P32214 25-516)
T1 construct: whole, on cells; Membranes of transiently transfected BHK tk'ts 13 cells; also called rCTR; rat calcitonin (a) receptor
T1 sequence (looked up): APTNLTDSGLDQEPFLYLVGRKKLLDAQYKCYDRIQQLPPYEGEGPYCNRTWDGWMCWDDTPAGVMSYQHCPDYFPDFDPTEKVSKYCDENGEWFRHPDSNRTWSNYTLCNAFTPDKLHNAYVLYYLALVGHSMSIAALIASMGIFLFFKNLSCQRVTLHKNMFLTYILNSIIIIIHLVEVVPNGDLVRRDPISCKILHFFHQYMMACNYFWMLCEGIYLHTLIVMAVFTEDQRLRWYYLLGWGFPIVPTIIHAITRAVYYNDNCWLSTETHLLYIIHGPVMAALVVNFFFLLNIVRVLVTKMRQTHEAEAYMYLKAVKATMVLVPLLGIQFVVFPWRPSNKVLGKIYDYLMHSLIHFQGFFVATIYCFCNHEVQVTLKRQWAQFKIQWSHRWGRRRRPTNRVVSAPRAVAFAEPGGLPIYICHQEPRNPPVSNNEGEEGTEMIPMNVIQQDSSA

T2: human calcitonin receptor (human, UniProt P30988 25-474)
T2 construct: whole, on cells; Membranes of stably transfected cells; also called hCTR; hCT
T2 sequence (looked up): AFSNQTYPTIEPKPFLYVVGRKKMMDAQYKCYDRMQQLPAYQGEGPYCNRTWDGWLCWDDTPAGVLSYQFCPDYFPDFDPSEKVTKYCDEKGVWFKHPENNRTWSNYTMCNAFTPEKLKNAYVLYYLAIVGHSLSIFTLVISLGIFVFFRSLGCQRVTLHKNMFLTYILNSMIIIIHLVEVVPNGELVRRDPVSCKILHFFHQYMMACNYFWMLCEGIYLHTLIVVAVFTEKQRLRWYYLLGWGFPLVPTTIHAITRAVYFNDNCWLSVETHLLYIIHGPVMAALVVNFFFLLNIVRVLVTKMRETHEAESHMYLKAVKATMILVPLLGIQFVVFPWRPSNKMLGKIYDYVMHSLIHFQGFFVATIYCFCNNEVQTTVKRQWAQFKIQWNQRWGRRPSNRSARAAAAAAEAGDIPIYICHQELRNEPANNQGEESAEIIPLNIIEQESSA

T3: rat amylin receptor (rat calcitonin receptor + rat RAMP 3) (rat, UniProt P32214 25-516; Q9JJ73 23-147)
T3 construct: whole, on cells; Membranes of transiently transfected BHK tk'ts 13 cells; also called rAmylin-R; rat amylin 3(a) receptor
T3 sequence (looked up) 1: T1 sequence (looked up)
T3 sequence (looked up) 2: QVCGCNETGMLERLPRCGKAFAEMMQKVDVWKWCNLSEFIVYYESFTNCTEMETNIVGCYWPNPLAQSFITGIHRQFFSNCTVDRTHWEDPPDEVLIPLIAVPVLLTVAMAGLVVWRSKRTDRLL

B1: N^ε1-[2-[2-[2-[[2-[2-[2-[[(4S)-4-carboxy-4-(19-carboxynonadecanoylamino)butanoyl]amino]ethoxy]ethoxy]acetyl]amino]ethoxy]ethoxy]acetyl]-[Arg17,Pro21,Pro27,Pro34 … (peptide)
peptide: K([AEEA-AEEA-γGlu-C20 diacid])CNTATCATQRLANFLRHSSPNFGAIPSSTNVGPNTY-NH2
modifications: disulfide 2-7; N-terminus assumed
SMILES: CC[C@H](C)[C@H](NC(=O)[C@H](C)NC(=O)CNC(=O)[C@H](Cc1ccccc1)NC(=O)[C@H](CC(N)=O)NC(=O)[C@@H]1CCCN1C(=O)[C@H](CO)NC(=O)[C@H](CO)NC(=O)[C@H](Cc1c[nH]cn1)NC(=O)[C@H](CCCNC(=N)N)NC(=O)[C@H](CC(C)C)NC(=O)[C@H](Cc1ccccc1)NC(=O)[C@H](CC(N)=O)NC(=O)[C@H](C)NC(=O)[C@H](CC(C)C)NC(=O)[C@H](CCCNC(=N)N)NC(=O)[C@H](CCC(N)=O)NC(=O)[C@@H](NC(=O)[C@H](C)NC(=O)[C@@H]1CSSC[C@H](NC(=O)[C@@H](N)CCCCNC(=O)COCCOCCNC(=O)COCCOCCNC(=O)CC[C@H](NC(=O)CCCCCCCCCCCCCCCCCCC(=O)O)C(=O)O)C(=O)N[C@@H](CC(N)=O)C(=O)N[C@@H]([C@@H](C)O)C(=O)N[C@@H](C)C(=O)N[C@@H]([C@@H](C)O)C(=O)N1)[C@@H](C)O)C(=O)N1CCC[C@H]1C(=O)N[C@@H](CO)C(=O)N[C@@H](CO)C(=O)N[C@H](C(=O)N[C@@H](CC(N)=O)C(=O)N[C@H](C(=O)NCC(=O)N1CCC[C@H]1C(=O)N[C@@H](CC(N)=O)C(=O)N[C@H](C(=O)N[C@@H](Cc1ccc(O)cc1)C(N)=O)[C@@H](C)O)C(C)C)[C@@H](C)O
notes: Synthetic acylated analogue of human amylin; also called compound 98
B2: N^ε1-[(4S)-4-carboxy-4-(15-carboxypentadecanoylamino)butanoyl]-[Arg17,Pro21,Pro27,His34]-h-amylin (peptide)
peptide: K([γGlu-C16 diacid])CNTATCATQRLANFLRHSSPNFGAIPSSTNVGHNTY-NH2
modifications: disulfide 2-7; N-terminus assumed
SMILES: CC[C@H](C)[C@H](NC(=O)[C@H](C)NC(=O)CNC(=O)[C@H](Cc1ccccc1)NC(=O)[C@H](CC(N)=O)NC(=O)[C@@H]1CCCN1C(=O)[C@H](CO)NC(=O)[C@H](CO)NC(=O)[C@H](Cc1c[nH]cn1)NC(=O)[C@H](CCCNC(=N)N)NC(=O)[C@H](CC(C)C)NC(=O)[C@H](Cc1ccccc1)NC(=O)[C@H](CC(N)=O)NC(=O)[C@H](C)NC(=O)[C@H](CC(C)C)NC(=O)[C@H](CCCNC(=N)N)NC(=O)[C@H](CCC(N)=O)NC(=O)[C@@H](NC(=O)[C@H](C)NC(=O)[C@@H]1CSSC[C@H](NC(=O)[C@@H](N)CCCCNC(=O)CC[C@H](NC(=O)CCCCCCCCCCCCCCC(=O)O)C(=O)O)C(=O)N[C@@H](CC(N)=O)C(=O)N[C@@H]([C@@H](C)O)C(=O)N[C@@H](C)C(=O)N[C@@H]([C@@H](C)O)C(=O)N1)[C@@H](C)O)C(=O)N1CCC[C@H]1C(=O)N[C@@H](CO)C(=O)N[C@@H](CO)C(=O)N[C@H](C(=O)N[C@@H](CC(N)=O)C(=O)N[C@H](C(=O)NCC(=O)N[C@@H](Cc1c[nH]cn1)C(=O)N[C@@H](CC(N)=O)C(=O)N[C@H](C(=O)N[C@@H](Cc1ccc(O)cc1)C(N)=O)[C@@H](C)O)C(C)C)[C@@H](C)O
notes: Synthetic acylated analogue of human amylin
B3: N^ε1-[(4S)-4-carboxy-4-(13-carboxytridecanoylamino)butanoyl]-[Arg17,Pro21,Pro27,His34]-h-amylin (peptide)
peptide: K([γGlu-C14 diacid])CNTATCATQRLANFLRHSSPNFGAIPSSTNVGHNTY-NH2
modifications: disulfide 2-7; N-terminus assumed
SMILES: CC[C@H](C)[C@H](NC(=O)[C@H](C)NC(=O)CNC(=O)[C@H](Cc1ccccc1)NC(=O)[C@H](CC(N)=O)NC(=O)[C@@H]1CCCN1C(=O)[C@H](CO)NC(=O)[C@H](CO)NC(=O)[C@H](Cc1c[nH]cn1)NC(=O)[C@H](CCCNC(=N)N)NC(=O)[C@H](CC(C)C)NC(=O)[C@H](Cc1ccccc1)NC(=O)[C@H](CC(N)=O)NC(=O)[C@H](C)NC(=O)[C@H](CC(C)C)NC(=O)[C@H](CCCNC(=N)N)NC(=O)[C@H](CCC(N)=O)NC(=O)[C@@H](NC(=O)[C@H](C)NC(=O)[C@@H]1CSSC[C@H](NC(=O)[C@@H](N)CCCCNC(=O)CC[C@H](NC(=O)CCCCCCCCCCCCC(=O)O)C(=O)O)C(=O)N[C@@H](CC(N)=O)C(=O)N[C@@H]([C@@H](C)O)C(=O)N[C@@H](C)C(=O)N[C@@H]([C@@H](C)O)C(=O)N1)[C@@H](C)O)C(=O)N1CCC[C@H]1C(=O)N[C@@H](CO)C(=O)N[C@@H](CO)C(=O)N[C@H](C(=O)N[C@@H](CC(N)=O)C(=O)N[C@H](C(=O)NCC(=O)N[C@@H](Cc1c[nH]cn1)C(=O)N[C@@H](CC(N)=O)C(=O)N[C@H](C(=O)N[C@@H](Cc1ccc(O)cc1)C(N)=O)[C@@H](C)O)C(C)C)[C@@H](C)O
notes: as for B2
B4: N^ε1-[(4S)-4-carboxy-4-(17-carboxyheptadecanoylamino)butanoyl]-[Arg17,Pro21,Pro27,His34]-h-amylin (peptide)
peptide: K([γGlu-C18 diacid])CNTATCATQRLANFLRHSSPNFGAIPSSTNVGHNTY-NH2
modifications: disulfide 2-7; N-terminus assumed
SMILES: CC[C@H](C)[C@H](NC(=O)[C@H](C)NC(=O)CNC(=O)[C@H](Cc1ccccc1)NC(=O)[C@H](CC(N)=O)NC(=O)[C@@H]1CCCN1C(=O)[C@H](CO)NC(=O)[C@H](CO)NC(=O)[C@H](Cc1c[nH]cn1)NC(=O)[C@H](CCCNC(=N)N)NC(=O)[C@H](CC(C)C)NC(=O)[C@H](Cc1ccccc1)NC(=O)[C@H](CC(N)=O)NC(=O)[C@H](C)NC(=O)[C@H](CC(C)C)NC(=O)[C@H](CCCNC(=N)N)NC(=O)[C@H](CCC(N)=O)NC(=O)[C@@H](NC(=O)[C@H](C)NC(=O)[C@@H]1CSSC[C@H](NC(=O)[C@@H](N)CCCCNC(=O)CC[C@H](NC(=O)CCCCCCCCCCCCCCCCC(=O)O)C(=O)O)C(=O)N[C@@H](CC(N)=O)C(=O)N[C@@H]([C@@H](C)O)C(=O)N[C@@H](C)C(=O)N[C@@H]([C@@H](C)O)C(=O)N1)[C@@H](C)O)C(=O)N1CCC[C@H]1C(=O)N[C@@H](CO)C(=O)N[C@@H](CO)C(=O)N[C@H](C(=O)N[C@@H](CC(N)=O)C(=O)N[C@H](C(=O)NCC(=O)N[C@@H](Cc1c[nH]cn1)C(=O)N[C@@H](CC(N)=O)C(=O)N[C@H](C(=O)N[C@@H](Cc1ccc(O)cc1)C(N)=O)[C@@H](C)O)C(C)C)[C@@H](C)O
notes: as for B2

These binders were tested against T1, rat calcitonin receptor (assay: ratio of IC50 on rat calcitonin receptor to IC50 on rat amylin receptor (reference m40)).

| Binder | Ratio rCT/rAmylin binding |
| --- | --- |
| B1 | 176 |
| B2 | 327 |
| B3 | 280 |
| B4 | 40.3 |

Each binder was assayed against T2, human calcitonin receptor (assay: ratio of IC50 on human calcitonin receptor to IC50 on human amylin receptor (reference m42), SPA competition).
Protocol: The resulting pellet was resuspended, homogenized and centrifuged (20.000 rpm, 15 min) in a buffer containing 20 mM Na-HEPES and 0.1 mM EDTA (pH 7.4, buffer 2). The resulting pellet was resuspended in buffer 2 and protein concentration was measured (BCA protein Assay, Pierce). The homogenate was kept cold during the whole procedure. The membranes were kept at −80° C. until use. The assay was performed in a 384 well Optiplate (PerkinElmer) in a total volume of 40 ul. Membranes were mixed with SPA beads. Final concentration of membranes 35 ng/μL final and SPA beads was 0.05 mg/well. Test-compounds were dissolved in DMSO and further diluted in assay buffer (50 mM Hepes, pH 7.4, 1 mM CaCl2, 5 mM MgCl₂, 0.1% OA and 0.02% Tween20). […] The final mixture was incubated with shaking at 400 rpm for 120 min at 25° C. prior to centrifugation (1500 rpm, 10 min). Samples were analyzed on TopCounter™ (Packard). The IC₅₀ was calculated using (one site binding competition analysis) GraphPad Prism5 as a measure of receptor affinity.
Membranes were prepared in the following way; the cells were rinsed with PBS and incubated with Versene for approximately 5 min before harvesting. The cells were flushed with PBS and the cell-suspension was centrifuged for 5 min at 1000 rpm. Cells were homogenized (Ultrathurrax) in a buffer containing 20 mM Na-HEPES and 10 mM EDTA (pH 7.4) and centrifuged at 20.000 rpm for 15 min. The resulting pellet was resuspended, homogenized and centrifuged (20.000 rpm, 15 min) in a buffer containing 20 mM Na-HEPES and 0.1 mM EDTA (pH 7.4, buffer 2). The resulting pellet was resuspended in buffer 2 and protein concentration was measured (BCA protein Assay, Pierce). The homogenate was kept cold during the whole procedure. The membranes were kept at −80° C. until use. Assay was performed in a 384 well Optiplate (PerkinElmer) in a total volume of 40 ul. Membranes were mixed with SPA beads.

| Binder | Ratio hCT/hAmylin binding |
| --- | --- |
| B1 | 74.1 |
| B2 | 18.5 |
| B3 | 23.5 |
| B4 | 59.4 |

What follows are binders tested against T1, rat calcitonin receptor (assay: SPA competition with 125I-calcitonin on membranes of BHK tk'ts 13 cells with rat calcitonin receptor (Assay VIII)).

| Binder | IC50 [nM] |
| --- | --- |
| B1 | 24.1 |
| B2 | 404 |
| B3 | 707 |
| B4 | 47 |

The binders below were run against T3, rat amylin receptor (rat calcitonin …) (assay: SPA competition with 125I-rat amylin on membranes of BHK tk'ts 13 cells with rat calcitonin receptor + rat RAMP3 (Assay VI)).

| Binder | IC50 [nM] |
| --- | --- |
| B1 | 0.137 |
| B2 | 1.24 |
| B3 | 2.52 |
| B4 | 1.17 |
